Experimental findings from article PMC3901001 are described below.

For the experiment, the target named is full-length human α isoform of CaMKII (CaMKIIα), wild type (human) (UniProt Q9UQM7). Kind of experiment: single-molecule TIRF colocalisation; mixed with ATP in the absence of Ca2+/CaM (37°C by the DLS legend).
Sequence of UniProt Q9UQM7 (Q9UQM7 whole entry, canonical isoform): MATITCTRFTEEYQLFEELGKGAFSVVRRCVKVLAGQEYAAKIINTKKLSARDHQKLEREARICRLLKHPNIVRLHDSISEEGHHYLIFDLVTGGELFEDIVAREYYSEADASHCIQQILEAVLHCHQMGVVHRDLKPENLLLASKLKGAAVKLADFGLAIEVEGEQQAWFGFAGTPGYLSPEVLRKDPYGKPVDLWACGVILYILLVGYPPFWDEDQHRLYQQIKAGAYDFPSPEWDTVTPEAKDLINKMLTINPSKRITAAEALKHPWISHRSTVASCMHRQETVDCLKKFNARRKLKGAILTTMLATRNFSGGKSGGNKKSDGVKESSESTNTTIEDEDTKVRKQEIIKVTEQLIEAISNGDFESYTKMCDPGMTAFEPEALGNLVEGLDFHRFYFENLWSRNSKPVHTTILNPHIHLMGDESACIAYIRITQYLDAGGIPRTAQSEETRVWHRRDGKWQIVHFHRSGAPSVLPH

For “CaMKII^T286D, constitutively active mutant of full-length human CaMKIIα (enzyme)”, the percent colocalisation (plateau) was determined as 60%.
